Test results published in publication PMC9050680, “Interaction of human CRX and NRL in live HEK293T cells measured using fluorescence resonance energy transfer (FRET)” (Scientific Reports, 2022).

Biological target: the molecule itself
Assay: FRET or BRET; FC-FRET: flow cytometry, sensitized emission (three-cube N_FRET, apparent FRET efficiency) in live transiently cotransfected HEK293T cells suspended in PBS; donor EGFP, acceptor mCherry; population means and dependence on expression level compared with unlinked mCh + eG

B1: human CRX with mCherry or EGFP fused to the N-terminus (near the homeodomain) (natural protein)
chain: not shown
notes: CRX, human, cone-rod homeobox protein; coding region cloned in derivatives of pEGFP-N1 with an NLS and a linker to EGFP or mCherry; mCRX (mCherry, acceptor) and eCRX (EGFP, donor) differ only in the fluorophore and are written as one molecule; mCRX + eCRX is a row of m1 with itself; also called mCRX; eCRX; source: HEK293T, transiently transfected, in live cells (fixed cells for acceptor …)
  N_FRET (mean apparent FRET efficiency): 3.3%

B2: human NRL with mCherry or EGFP fused to the N-terminus (near the activation domain) (natural protein)
chain: not shown
notes: NRL, human, neural retina-specific leucine zipper protein; coding region cloned in derivatives of pEGFP-N1 with an NLS and a linker to EGFP or mCherry; mNRL (mCherry, acceptor) and eNRL (EGFP, donor) differ only in the fluorophore and are written as one molecule; The discussion speaks of (Gly)5 linkers between the fluorophores and NRL; also called mNRL; eNRL; source: HEK293T, transiently …
  N_FRET (mean apparent FRET efficiency): 2.5%
